B1: Chimeric parental antibody (H4965 + L4965) (antibody, IgG1, V domains shown)
VH: EVQLQQSGGERATPGASVKMSCKTSGYTFTNYWMHWVKQRPGQGLEWIGYINPSSGYTQYNQKFKDKATLTADKSSSTAYIQLSSLTSEDSAVYYCSTYYGDYLFPYWGQGTLVTVSA
VL: DVLMTQTPLSLPVSLGDQASISCRSSQDIVYGNGNTYLEWYLQKPGQSPKLLIYKVSNRFSGVPDRFSGSGSGTDFTLKISRVEAEDLGVYYCFQGSHVPYTFGGGTKLEIKR
notes: also called pp 9854; Chimeric Parental HC
B2: Humanized HC2 + LC2 (antibody, human IgG2, kappa, V domains shown)
VH: QVQLVQSGAEVKKPGASVKVSCKASGYTFTNYWMHWVRQAPGQGLEWMGYINPSSGYTQYNQKFQGRVTMTADTSTSTVYMELSSLRSEDTAVYYCSTYYGDYLFPYWGQGTLVTVSS
VL: DVVMTQSPLSLPVTLGQPASISCRSSQDIVYGNGNTYLEWYQQRPGQSPRLLIYKVSNRFSGVPDRFSGSGSGTDFTLKISRVEAEDVGVYYCFQGSHVPYTFGQGTKLEIKR
notes: Listing: IgG2 heavy chain; also called H6246 + L6246
B3: Humanized HC1 + LC3 (antibody, human IgG2, kappa, V domains shown)
VH: QVQLVQSGAEVKKPGASVKVSCKASGYTFTNYWMHWVRQAPGQGLEWMGYINPSSGYTQYNQKFQGRVTMTRDTSTSTVYMELSSLRSEDTAVYYCSTYYGDYLFPYWGQGTLVTVSS
VL: DIVLTQSPLSLPVTLGQPASISCRSSQDIVYGNGNTYLEWYQQRPGQSPRLLIYKVSNRFSGVPDSFSGSGSGTDFTLTISRVEAEDVGIYYCFQGSHVPYTFGEGTKLEIKR
notes: Listing: IgG2 heavy chain; also called H6245 + L6247
B4: Humanized HC3 + LC3 (antibody, human IgG2, kappa, V domains shown)
VH: EVQLVQSGAEVKKPGASVKVSCKASGYTFTNYWMHWVRQAPGQGLEWMGYINPSSGYTQYNQKFQGWVTMTADTSISTAYMELSRLRSDDTAVYYCSTYYGDYLFPYWGQGTLVTVSS
VL: DIVLTQSPLSLPVTLGQPASISCRSSQDIVYGNGNTYLEWYQQRPGQSPRLLIYKVSNRFSGVPDSFSGSGSGTDFTLTISRVEAEDVGIYYCFQGSHVPYTFGEGTKLEIKR
notes: Listing: IgG2 heavy chain; also called H6247 + L6247
B5: Humanized HC2 + LC3 (antibody, human IgG2, kappa, V domains shown)
VH: QVQLVQSGAEVKKPGASVKVSCKASGYTFTNYWMHWVRQAPGQGLEWMGYINPSSGYTQYNQKFQGRVTMTADTSTSTVYMELSSLRSEDTAVYYCSTYYGDYLFPYWGQGTLVTVSS
VL: DIVLTQSPLSLPVTLGQPASISCRSSQDIVYGNGNTYLEWYQQRPGQSPRLLIYKVSNRFSGVPDSFSGSGSGTDFTLTISRVEAEDVGIYYCFQGSHVPYTFGEGTKLEIKR
notes: Listing: IgG2 heavy chain; also called H6246 + L6247
B6: Humanized HC1 + LC2 (antibody, human IgG2, kappa, V domains shown)
VH: QVQLVQSGAEVKKPGASVKVSCKASGYTFTNYWMHWVRQAPGQGLEWMGYINPSSGYTQYNQKFQGRVTMTRDTSTSTVYMELSSLRSEDTAVYYCSTYYGDYLFPYWGQGTLVTVSS
VL: DVVMTQSPLSLPVTLGQPASISCRSSQDIVYGNGNTYLEWYQQRPGQSPRLLIYKVSNRFSGVPDRFSGSGSGTDFTLKISRVEAEDVGVYYCFQGSHVPYTFGQGTKLEIKR
notes: Listing: IgG2 heavy chain; also called H6245 + L6246
B7: Humanized HC3 + LC2 (antibody, human IgG2, kappa, V domains shown)
VH: EVQLVQSGAEVKKPGASVKVSCKASGYTFTNYWMHWVRQAPGQGLEWMGYINPSSGYTQYNQKFQGWVTMTADTSISTAYMELSRLRSDDTAVYYCSTYYGDYLFPYWGQGTLVTVSS
VL: DVVMTQSPLSLPVTLGQPASISCRSSQDIVYGNGNTYLEWYQQRPGQSPRLLIYKVSNRFSGVPDRFSGSGSGTDFTLKISRVEAEDVGVYYCFQGSHVPYTFGQGTKLEIKR
notes: Listing: IgG2 heavy chain; also called H6247 + L6246
B8: TAB-004 antibody-conjugated mesoporous silica nanoparticle (antibody, V domains shown)
VH: EVQLQQSGGERATPGASVKMSCKTSGYTFTNYWMHWVKQRPGQGLEWIGYINPSSGYTQYNQKFKDKATLTADKSSSTAYIQLSSLTSEDSAVYYCSTYYGDYLFPYWGQGTLVTVSA
VL: DVLMTQTPLSLPVSLGDQASISCRSSQDIVYGNGNTYLEWYLQKPGQSPKLLIYKVSNRFSGVPDRFSGSGSGTDFTLKISRVEAEDLGVYYCFQGSHVPYTFGGGTKLEIKR
modifications: antibody coupled by EDC to the carboxylic acid groups of a PEG-2K linker on an FITC-labelled mesoporous silica nanoparticle; site not stated
notes: Many copies of TAB-004 on one particle; also called TAB-004-MSN
B9: Humanized HC1 + LC1 (antibody, human IgG2, kappa, V domains shown)
VH: QVQLVQSGAEVKKPGASVKVSCKASGYTFTNYWMHWVRQAPGQGLEWMGYINPSSGYTQYNQKFQGRVTMTRDTSTSTVYMELSSLRSEDTAVYYCSTYYGDYLFPYWGQGTLVTVSS
VL: DVVMTQSPLSLPVTLGQPASISCRSSQDIVYGNGNTYLEWFQQRPGQSPRLLIYKVSNRFSGVPDRFSGSGSGTDFTLKISRVEAEDVGVYYCFQGSHVPYTFGQGTKLEIKR
notes: also called H6245 + L6245
B10: Humanized HC3 + LC1 (antibody, human IgG2, kappa, V domains shown)
VH: EVQLVQSGAEVKKPGASVKVSCKASGYTFTNYWMHWVRQAPGQGLEWMGYINPSSGYTQYNQKFQGWVTMTADTSISTAYMELSRLRSDDTAVYYCSTYYGDYLFPYWGQGTLVTVSS
VL: DVVMTQSPLSLPVTLGQPASISCRSSQDIVYGNGNTYLEWFQQRPGQSPRLLIYKVSNRFSGVPDRFSGSGSGTDFTLKISRVEAEDVGVYYCFQGSHVPYTFGQGTKLEIKR
notes: Listing: IgG2 heavy chain; also called H6247 + L6245
B11: Humanized HC2 + LC1 (antibody, human IgG2, kappa, V domains shown)
VH: QVQLVQSGAEVKKPGASVKVSCKASGYTFTNYWMHWVRQAPGQGLEWMGYINPSSGYTQYNQKFQGRVTMTADTSTSTVYMELSSLRSEDTAVYYCSTYYGDYLFPYWGQGTLVTVSS
VL: DVVMTQSPLSLPVTLGQPASISCRSSQDIVYGNGNTYLEWFQQRPGQSPRLLIYKVSNRFSGVPDRFSGSGSGTDFTLKISRVEAEDVGVYYCFQGSHVPYTFGQGTKLEIKR
notes: Listing: IgG2 heavy chain; also called H6246 + L6245

This is an account of results in US12605469B2, “Tumor specific antibody conjugates and uses therefor” (The University of North Carolina at Charlotte, priority 2019, dated 2026).

T1 sequence (P15941 other isoform, or with tags, fused parts or gaps limits assumed): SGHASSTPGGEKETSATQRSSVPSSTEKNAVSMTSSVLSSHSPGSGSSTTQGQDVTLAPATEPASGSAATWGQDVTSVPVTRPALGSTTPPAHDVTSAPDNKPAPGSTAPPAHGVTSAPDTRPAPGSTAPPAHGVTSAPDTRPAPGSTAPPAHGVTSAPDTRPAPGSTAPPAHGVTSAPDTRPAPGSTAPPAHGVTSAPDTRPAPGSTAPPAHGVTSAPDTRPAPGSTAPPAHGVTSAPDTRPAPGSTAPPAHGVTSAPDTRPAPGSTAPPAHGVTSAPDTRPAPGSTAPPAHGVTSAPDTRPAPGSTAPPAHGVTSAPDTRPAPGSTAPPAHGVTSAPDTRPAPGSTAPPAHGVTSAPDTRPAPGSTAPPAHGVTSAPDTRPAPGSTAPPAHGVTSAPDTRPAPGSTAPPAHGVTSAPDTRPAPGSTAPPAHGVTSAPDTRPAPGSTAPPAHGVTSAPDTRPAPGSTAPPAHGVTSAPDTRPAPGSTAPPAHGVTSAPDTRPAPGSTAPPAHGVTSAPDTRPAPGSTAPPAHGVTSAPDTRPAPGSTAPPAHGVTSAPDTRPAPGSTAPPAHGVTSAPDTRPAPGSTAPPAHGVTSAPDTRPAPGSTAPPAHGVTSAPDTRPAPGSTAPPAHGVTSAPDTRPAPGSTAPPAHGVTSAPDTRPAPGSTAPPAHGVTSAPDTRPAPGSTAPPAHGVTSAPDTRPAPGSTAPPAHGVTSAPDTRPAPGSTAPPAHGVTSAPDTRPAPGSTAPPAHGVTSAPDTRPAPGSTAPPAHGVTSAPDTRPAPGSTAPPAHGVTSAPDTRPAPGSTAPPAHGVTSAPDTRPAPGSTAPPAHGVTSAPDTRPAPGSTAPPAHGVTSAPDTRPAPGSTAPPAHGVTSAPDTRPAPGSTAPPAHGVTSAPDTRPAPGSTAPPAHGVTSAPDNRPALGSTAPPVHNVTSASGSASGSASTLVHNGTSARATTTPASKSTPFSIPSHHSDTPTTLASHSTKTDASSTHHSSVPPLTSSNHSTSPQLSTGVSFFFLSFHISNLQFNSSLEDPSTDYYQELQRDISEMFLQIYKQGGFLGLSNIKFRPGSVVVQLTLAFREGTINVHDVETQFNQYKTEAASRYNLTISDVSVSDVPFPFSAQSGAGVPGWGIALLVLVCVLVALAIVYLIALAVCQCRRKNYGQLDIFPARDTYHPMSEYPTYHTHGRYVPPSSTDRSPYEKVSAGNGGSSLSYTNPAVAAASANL
T2 sequence (P15941 other isoform, or with tags, fused parts or gaps limits assumed): as above

One assay concerns the target T1, human MUC1 antigen in plate ELISA (KCM lysate) (human, UniProt P15941 24-1255, limits assumed, tumor-associated glycosylation, not specified further). Description: sandwich ELISA: hybridoma antibody coat, KCM lysate 10 µg/mL, test antibody in 5-fold dilutions, HRP goat anti-human IgG, OD450. For orientation: ELISA stands for enzyme-linked immunosorbent assay.
The term EC50 denotes the concentration at which the effect is half-maximal. B1 registered an EC50 of 0.006 µg/mL.

On to B2, for which the EC50 is 0.032 µg/mL.

B3 came in with an EC50 of 0.051 µg/mL.

B4: the midpoint of the response, the EC50, lay at 0.004 µg/mL.

B5: the EC50 turned out to be 0.027 µg/mL.

Molecule B6 came in with an EC50 of 0.055 µg/mL.

Consider B7, for which the EC50 is 0.007 µg/mL.

A further assay concerns the target T2, human MUC1, tumor-associated form (tMUC), on tumor cells and tumor tissue (human, UniProt P15941 24-1255, tumor-associated (aberrant) glycosylation, not specified further).
T2 construct: also called tMUC1; tumor-associated glycosylated MUC1
Description: flow cytometry of particle uptake, 12 hours at 37 °C; KCM cells (human MUC1) against KCKO cells (MUC1 knockout).
In the case of B8, the “fold increase in uptake by KCM cells as compared to KCKO cells” value was determined as 8 fold.

The target in a further assay is T1, human MUC1 antigen in plate ELISA (KCM …). Nature of the assay: sandwich ELISA: hybridoma antibody coat, KCM lysate 10 µg/mL, test antibody in 5-fold dilutions, HRP goat anti-human IgG.
For the molecule B9, the binding result is “no binding”.

Take B10: the binding result is listed as “no binding”.

B11: the binding result is reported as “no binding”.
